Broadly, the EC50 is the concentration needed to bring the measured effect to its halfway point. A word on the Kd: it is the constant that tells how readily two partners part at equilibrium. For orientation: koff means the rate constant with which the complex falls apart. As usually defined, the kon is the second-order rate constant of association. The IC50 is the concentration that inhibits the measured activity by half.

Where two headings read alike, the source gives them in different places.

Experiment [1] concerns the target recombinant human CD47 (human) (UniProt Q08722). The experiment in a line: ELISA, plate coated with recombinant human CD47, OD450.
The target is the same in experiment [2]. The experiment in a line: ELISA, plate coated with 1 µg/mL recombinant human CD47, OD450.
The target is the same in experiment [3]. Description: SPR, Biacore X100, antibody captured on Protein A chip, CD47 as analyte. In general terms: SPR reads the build-up and loss of mass on a sensor chip optically.
Experiment [4] has the same target. The experiment is described as above. The source holds these as a separate data set.
Experiment [5] addresses recombinant human CD47-Fc protein (ACROBiosystems, catalog number CD7-H52A5) (human) (UniProt Q08722). The experiment in a line: blocking ELISA: plate coated with human CD47-Fc, biotin-labelled SIRPα as the blocked ligand, falling OD450 curve; the sheet labels the half-maximal value EC50. (ELISA stands for enzyme-linked immunosorbent assay.)
Experiment [6] shares this target. Description: blocking ELISA: plate coated with human CD47-Fc, 2 nM biotin-labelled SIRPα as the blocked ligand, falling OD450 curve; the sheet labels the half-maximal value EC50.

recombinant human CD47 (human), sequence (Q08722 19-139 limits assumed): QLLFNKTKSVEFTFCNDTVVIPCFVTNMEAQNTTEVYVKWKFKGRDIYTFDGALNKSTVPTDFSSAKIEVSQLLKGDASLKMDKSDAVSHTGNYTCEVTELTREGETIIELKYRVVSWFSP
recombinant human CD47-Fc protein (ACROBiosystems, catalog number CD7-H52A5) (human), sequence (Q08722 19-139 limits assumed): as above

B1: control CC-90002 (a patent sequence from WO2016109415) (antibody, from another filing, V domains shown)
VH: QMQLVQSGAEVKKTGSSVKVSCKASGFNIKDYYLHWVRQAPGQALEWMGWIDPDQGDTEYAQKFQDRVTITRDRSMSTAYMELSSLRSEDTAMYYCNAAYGSSSYPMDYWGQGTTVTV
VL: NIQMTQSPSAMSASVGDRVTITCKASQDIHRYLSWFQQKPGKVPKHLIYRANRLVSGVPSRFSGSGSGTEFTLTISSLQPEDFATYYCLQYDEFPYTFGGGTKVEIK
On to B1, for which the EC50 in experiment [1] is 0.033 nM; in experiment [2] it was 0.058 nM. The equilibrium dissociation constant (Kd) in experiment [3] is 1.16 nM; in experiment [4] it was 0.857 nM. Further, the koff came to 0.00176 s⁻¹ in experiment [3] and 0.00135 s⁻¹ in experiment [4]. The kon in experiment [3] is 1.52e+06 M⁻¹ s⁻¹; in experiment [4], 1.57e+06 M⁻¹ s⁻¹. The IC50 in experiment [5] turned out to be 0.774 nM; in experiment [6], 1.43 nM.
